According to patent US20260049138A1 (Chugai, published 2026):

Target: T1, CD3ε homodimer protein (human, UniProt P07766 23-126, limits assumed)
T1 construct: also called CD3 (CD3ε)
Assay: SPR Biacore T200, CD3ε homodimer on chip;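 further: Light-chain single-residue variant antibodies injected over amine-coupled CD3ε homodimer on a CM4 chip at 25 °C, bound amount divided by that of the GLS3000-containing antibody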

T1 sequence (P07766 23-126 limits assumed): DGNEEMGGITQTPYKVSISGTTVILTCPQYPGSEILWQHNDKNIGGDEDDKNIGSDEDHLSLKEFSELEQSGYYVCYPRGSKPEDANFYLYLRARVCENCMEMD

Binder	ratio of amount bound vs unaltered GLS3000
GLS3000 T31P one-arm antibody (antibody, human IgG1, kappa, L234A L235A, N297A, name in Kabat numbering) heavy: QVQLVESGGGVVQPGRSLRLSCAASGFTFSNAWMHWVRQAPGKGLEWVAQIKAKSNNYATYYAESVKGRFTISRDDSKNSLYLQMNSLKTEDTAVYYCRYVHYGAYYGVDAWGQGTTVTVSSASTKGPSVFPLAPSSKSTSGGTAALGCLVKDYFPEPVTVSWNSGALTSGVHTFPAVLQSSGLYSLSSVVTVPSSSLGTQTYICNVNHKPSNTKVDKKVEPKSCDKTHTCPPCPAPEAAGGPSVFLFPPKPKDTLMISRTPEVTCVVVDVSHEDPEVKFNWYVDGVEVHNAKTKPREEQYASTYRVVSVLTVLHQDWLNGKEYKCKVSNKALPAPIEKTISKAKGQPREPQVYTLPPSRCELTKNQVSLSCAVKGFYPSDIAVEWESNGQPENNYKTTPPVLDSDGSFFLVSKLTVDKSRWQQGNVFSCSVMHEALHNHYTQKSLSLSPDYKDDDDK EPKSSDKTHTCPPCPAPELLGGPSVFLFPPKPKDTLMISRTPEVTCVVVDVSHEDPEVKFNWYVDGVEVHNAKTKPREEQYNSTYRVVSVLTVLHQDWLNGKEYKCKVSNKALPAPIEKTISKAKGQPREPQVCTLPPSRDELTKNQVSLWCLVKGFYPSDIAVEWESNGQPENNYKTTPPVLDSDGSFFLYSKLTVDKSRWQQGNVFSCSVMHEALHNRYTQKSLSLSP light: DIVMTQSPLSLPVTPGEPASISCRSSQSLVHSNRNPYLHWYQQKPGQAPRLLIYKVSNRFSGVPDRFSGSGSGTDFTLKISRVEAEDVGVYYCGQGTQVPYTFGQGTKLEIKRTVAAPSVFIFPPSDEQLKSGTASVVCLLNNFYPREAKVQWKVDNALQSGNSQESVTEQDSKDSTYSLSSTLTLSKADYEKHKVYACEVTHQGLSSPVTKSFNRGEC	0.31
GLS3000 T92I one-arm antibody (antibody, human IgG1, kappa, L234A L235A, N297A, name in Kabat numbering) heavy: QVQLVESGGGVVQPGRSLRLSCAASGFTFSNAWMHWVRQAPGKGLEWVAQIKAKSNNYATYYAESVKGRFTISRDDSKNSLYLQMNSLKTEDTAVYYCRYVHYGAYYGVDAWGQGTTVTVSSASTKGPSVFPLAPSSKSTSGGTAALGCLVKDYFPEPVTVSWNSGALTSGVHTFPAVLQSSGLYSLSSVVTVPSSSLGTQTYICNVNHKPSNTKVDKKVEPKSCDKTHTCPPCPAPEAAGGPSVFLFPPKPKDTLMISRTPEVTCVVVDVSHEDPEVKFNWYVDGVEVHNAKTKPREEQYASTYRVVSVLTVLHQDWLNGKEYKCKVSNKALPAPIEKTISKAKGQPREPQVYTLPPSRCELTKNQVSLSCAVKGFYPSDIAVEWESNGQPENNYKTTPPVLDSDGSFFLVSKLTVDKSRWQQGNVFSCSVMHEALHNHYTQKSLSLSPDYKDDDDK EPKSSDKTHTCPPCPAPELLGGPSVFLFPPKPKDTLMISRTPEVTCVVVDVSHEDPEVKFNWYVDGVEVHNAKTKPREEQYNSTYRVVSVLTVLHQDWLNGKEYKCKVSNKALPAPIEKTISKAKGQPREPQVCTLPPSRDELTKNQVSLWCLVKGFYPSDIAVEWESNGQPENNYKTTPPVLDSDGSFFLYSKLTVDKSRWQQGNVFSCSVMHEALHNRYTQKSLSLSP light: DIVMTQSPLSLPVTPGEPASISCRSSQSLVHSNRNTYLHWYQQKPGQAPRLLIYKVSNRFSGVPDRFSGSGSGTDFTLKISRVEAEDVGVYYCGQGIQVPYTFGQGTKLEIKRTVAAPSVFIFPPSDEQLKSGTASVVCLLNNFYPREAKVQWKVDNALQSGNSQESVTEQDSKDSTYSLSSTLTLSKADYEKHKVYACEVTHQGLSSPVTKSFNRGEC	0.34
GLS3000 T92D one-arm antibody (antibody, human IgG1, kappa, L234A L235A, N297A, name in Kabat numbering) heavy: QVQLVESGGGVVQPGRSLRLSCAASGFTFSNAWMHWVRQAPGKGLEWVAQIKAKSNNYATYYAESVKGRFTISRDDSKNSLYLQMNSLKTEDTAVYYCRYVHYGAYYGVDAWGQGTTVTVSSASTKGPSVFPLAPSSKSTSGGTAALGCLVKDYFPEPVTVSWNSGALTSGVHTFPAVLQSSGLYSLSSVVTVPSSSLGTQTYICNVNHKPSNTKVDKKVEPKSCDKTHTCPPCPAPEAAGGPSVFLFPPKPKDTLMISRTPEVTCVVVDVSHEDPEVKFNWYVDGVEVHNAKTKPREEQYASTYRVVSVLTVLHQDWLNGKEYKCKVSNKALPAPIEKTISKAKGQPREPQVYTLPPSRCELTKNQVSLSCAVKGFYPSDIAVEWESNGQPENNYKTTPPVLDSDGSFFLVSKLTVDKSRWQQGNVFSCSVMHEALHNHYTQKSLSLSPDYKDDDDK EPKSSDKTHTCPPCPAPELLGGPSVFLFPPKPKDTLMISRTPEVTCVVVDVSHEDPEVKFNWYVDGVEVHNAKTKPREEQYNSTYRVVSVLTVLHQDWLNGKEYKCKVSNKALPAPIEKTISKAKGQPREPQVCTLPPSRDELTKNQVSLWCLVKGFYPSDIAVEWESNGQPENNYKTTPPVLDSDGSFFLYSKLTVDKSRWQQGNVFSCSVMHEALHNRYTQKSLSLSP light: DIVMTQSPLSLPVTPGEPASISCRSSQSLVHSNRNTYLHWYQQKPGQAPRLLIYKVSNRFSGVPDRFSGSGSGTDFTLKISRVEAEDVGVYYCGQGDQVPYTFGQGTKLEIKRTVAAPSVFIFPPSDEQLKSGTASVVCLLNNFYPREAKVQWKVDNALQSGNSQESVTEQDSKDSTYSLSSTLTLSKADYEKHKVYACEVTHQGLSSPVTKSFNRGEC	0.18
GLS3000 T92E one-arm antibody (antibody, human IgG1, kappa, L234A L235A, N297A, name in Kabat numbering) heavy: QVQLVESGGGVVQPGRSLRLSCAASGFTFSNAWMHWVRQAPGKGLEWVAQIKAKSNNYATYYAESVKGRFTISRDDSKNSLYLQMNSLKTEDTAVYYCRYVHYGAYYGVDAWGQGTTVTVSSASTKGPSVFPLAPSSKSTSGGTAALGCLVKDYFPEPVTVSWNSGALTSGVHTFPAVLQSSGLYSLSSVVTVPSSSLGTQTYICNVNHKPSNTKVDKKVEPKSCDKTHTCPPCPAPEAAGGPSVFLFPPKPKDTLMISRTPEVTCVVVDVSHEDPEVKFNWYVDGVEVHNAKTKPREEQYASTYRVVSVLTVLHQDWLNGKEYKCKVSNKALPAPIEKTISKAKGQPREPQVYTLPPSRCELTKNQVSLSCAVKGFYPSDIAVEWESNGQPENNYKTTPPVLDSDGSFFLVSKLTVDKSRWQQGNVFSCSVMHEALHNHYTQKSLSLSPDYKDDDDK EPKSSDKTHTCPPCPAPELLGGPSVFLFPPKPKDTLMISRTPEVTCVVVDVSHEDPEVKFNWYVDGVEVHNAKTKPREEQYNSTYRVVSVLTVLHQDWLNGKEYKCKVSNKALPAPIEKTISKAKGQPREPQVCTLPPSRDELTKNQVSLWCLVKGFYPSDIAVEWESNGQPENNYKTTPPVLDSDGSFFLYSKLTVDKSRWQQGNVFSCSVMHEALHNRYTQKSLSLSP light: DIVMTQSPLSLPVTPGEPASISCRSSQSLVHSNRNTYLHWYQQKPGQAPRLLIYKVSNRFSGVPDRFSGSGSGTDFTLKISRVEAEDVGVYYCGQGEQVPYTFGQGTKLEIKRTVAAPSVFIFPPSDEQLKSGTASVVCLLNNFYPREAKVQWKVDNALQSGNSQESVTEQDSKDSTYSLSSTLTLSKADYEKHKVYACEVTHQGLSSPVTKSFNRGEC	0.17
GLS3000 T92A one-arm antibody (antibody, human IgG1, kappa, L234A L235A, N297A, name in Kabat numbering) heavy: QVQLVESGGGVVQPGRSLRLSCAASGFTFSNAWMHWVRQAPGKGLEWVAQIKAKSNNYATYYAESVKGRFTISRDDSKNSLYLQMNSLKTEDTAVYYCRYVHYGAYYGVDAWGQGTTVTVSSASTKGPSVFPLAPSSKSTSGGTAALGCLVKDYFPEPVTVSWNSGALTSGVHTFPAVLQSSGLYSLSSVVTVPSSSLGTQTYICNVNHKPSNTKVDKKVEPKSCDKTHTCPPCPAPEAAGGPSVFLFPPKPKDTLMISRTPEVTCVVVDVSHEDPEVKFNWYVDGVEVHNAKTKPREEQYASTYRVVSVLTVLHQDWLNGKEYKCKVSNKALPAPIEKTISKAKGQPREPQVYTLPPSRCELTKNQVSLSCAVKGFYPSDIAVEWESNGQPENNYKTTPPVLDSDGSFFLVSKLTVDKSRWQQGNVFSCSVMHEALHNHYTQKSLSLSPDYKDDDDK EPKSSDKTHTCPPCPAPELLGGPSVFLFPPKPKDTLMISRTPEVTCVVVDVSHEDPEVKFNWYVDGVEVHNAKTKPREEQYNSTYRVVSVLTVLHQDWLNGKEYKCKVSNKALPAPIEKTISKAKGQPREPQVCTLPPSRDELTKNQVSLWCLVKGFYPSDIAVEWESNGQPENNYKTTPPVLDSDGSFFLYSKLTVDKSRWQQGNVFSCSVMHEALHNRYTQKSLSLSP light: DIVMTQSPLSLPVTPGEPASISCRSSQSLVHSNRNTYLHWYQQKPGQAPRLLIYKVSNRFSGVPDRFSGSGSGTDFTLKISRVEAEDVGVYYCGQGAQVPYTFGQGTKLEIKRTVAAPSVFIFPPSDEQLKSGTASVVCLLNNFYPREAKVQWKVDNALQSGNSQESVTEQDSKDSTYSLSSTLTLSKADYEKHKVYACEVTHQGLSSPVTKSFNRGEC	0.63
GLS3000 T92L one-arm antibody (antibody, human IgG1, kappa, L234A L235A, N297A, name in Kabat numbering) heavy: QVQLVESGGGVVQPGRSLRLSCAASGFTFSNAWMHWVRQAPGKGLEWVAQIKAKSNNYATYYAESVKGRFTISRDDSKNSLYLQMNSLKTEDTAVYYCRYVHYGAYYGVDAWGQGTTVTVSSASTKGPSVFPLAPSSKSTSGGTAALGCLVKDYFPEPVTVSWNSGALTSGVHTFPAVLQSSGLYSLSSVVTVPSSSLGTQTYICNVNHKPSNTKVDKKVEPKSCDKTHTCPPCPAPEAAGGPSVFLFPPKPKDTLMISRTPEVTCVVVDVSHEDPEVKFNWYVDGVEVHNAKTKPREEQYASTYRVVSVLTVLHQDWLNGKEYKCKVSNKALPAPIEKTISKAKGQPREPQVYTLPPSRCELTKNQVSLSCAVKGFYPSDIAVEWESNGQPENNYKTTPPVLDSDGSFFLVSKLTVDKSRWQQGNVFSCSVMHEALHNHYTQKSLSLSPDYKDDDDK EPKSSDKTHTCPPCPAPELLGGPSVFLFPPKPKDTLMISRTPEVTCVVVDVSHEDPEVKFNWYVDGVEVHNAKTKPREEQYNSTYRVVSVLTVLHQDWLNGKEYKCKVSNKALPAPIEKTISKAKGQPREPQVCTLPPSRDELTKNQVSLWCLVKGFYPSDIAVEWESNGQPENNYKTTPPVLDSDGSFFLYSKLTVDKSRWQQGNVFSCSVMHEALHNRYTQKSLSLSP light: DIVMTQSPLSLPVTPGEPASISCRSSQSLVHSNRNTYLHWYQQKPGQAPRLLIYKVSNRFSGVPDRFSGSGSGTDFTLKISRVEAEDVGVYYCGQGLQVPYTFGQGTKLEIKRTVAAPSVFIFPPSDEQLKSGTASVVCLLNNFYPREAKVQWKVDNALQSGNSQESVTEQDSKDSTYSLSSTLTLSKADYEKHKVYACEVTHQGLSSPVTKSFNRGEC	0.42
